In US12723078 (University of Texas, dated 2026):

biological target: T1, human LILRB1 recombinant protein (human, UniProt Q8NHL6 24-461); test: ELISA, B cell supernatant
T1 construct: The ELISA method says only 'LILRB1 recombinant proteins' coated on plates; also called leukocyte immunoglobulin-like receptor subfamily B member 1
T1 sequence (Q8NHL6 24-461 limits assumed): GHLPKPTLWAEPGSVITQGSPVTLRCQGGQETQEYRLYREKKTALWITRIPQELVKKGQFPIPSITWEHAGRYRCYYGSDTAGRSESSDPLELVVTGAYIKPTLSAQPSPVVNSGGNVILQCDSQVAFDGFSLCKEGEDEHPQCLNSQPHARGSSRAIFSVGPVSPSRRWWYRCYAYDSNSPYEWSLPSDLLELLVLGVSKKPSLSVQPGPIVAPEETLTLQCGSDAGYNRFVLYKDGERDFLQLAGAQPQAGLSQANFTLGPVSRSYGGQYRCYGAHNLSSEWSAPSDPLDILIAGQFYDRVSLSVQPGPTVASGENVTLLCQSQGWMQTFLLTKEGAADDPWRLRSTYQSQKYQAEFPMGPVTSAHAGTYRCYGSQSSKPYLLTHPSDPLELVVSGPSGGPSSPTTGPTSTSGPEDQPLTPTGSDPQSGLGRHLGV

| OD450 | Binder |
| --- | --- |
| 2.25 OD450 | mAb of B cell clone 72 (supernatant) (antibody, V domains shown, rabbit; also called B1-#72-1) VH: QSVKESGGGLVQPEGSLALTCKASGIDLSNYWYMCWVRQAPGKGLEWIGCVATDSSRTHYATWAKGRFTVSKTSSTTVTLQMTSLTAADTATYFCARGSGASTNGVWWVMGDGMDLWGPGTLVTISS VL: ELVMTQTPSSVSAAVGGTVTIKCQASPSISTYLSWYQQKPGQPPKRLINRASTLASGVPPRFKGSGAGTQFTLTISDLECADAATYYCQNNYHSGSSNGGGVAFGGGTEVEIK |
| 2.14 OD450 | mAb of B cell clone 76 (supernatant) (antibody, V domains shown, rabbit; also called B1-#76) VH: EQSVEESGGGLVQPEGSLTLTCTASGFSFSGSCDMSWVRQAPGKGLEWIACIVLSNGNTYYAGWAQGRFTISKISSTTVTLEMTSLTAADTATYFCARERYPGAFSSGLDLWGQGTLVTVSS VL: ELDLTQTPSPVSAAVGGTVTINCQASQIVANGRLAWYQQKPGQPPKLLIYATSTLASGVPSRFKGSGSGTQFTLTINGVQCDDAATYYCQGAYSSGDVRTFGGGTEVVVK |
| 2.32 OD450 | mAb of B cell clone 79 (supernatant) (antibody, V domains shown, rabbit; also called B1-#79) VH: QSLEESGGGLVQPEGSLTLTCTVSGFSFSSSWYMCWVRQAPGKGLEWIACIYTLRSGAAHYANWAKGRFTISKASSTTVTLQMNSLTAADTATYFCARATYAYAGAGDLWGPGTLVTVSS VL: ELVLTQTPSSVSAAVGGTVTINCQASEDIDRYLAWYQQKPGQRPKLLIVDASTLPSGVPSRFKGSGSGTEFTLTISDLECADGATYYCQSYDNSDNNGFGGGTEVVVK |
| 2.4 OD450 | mAb of B cell clone 74 (supernatant) (antibody, V domains shown, rabbit; also called B1-#74) VH: QSLEESGGGLVKPGASLTLTCTASGFSLNRYYMCWVRQAPGKGLEWIGCIYSGSGSTYYASWAKGRFTISKTSSTTVTLQMTSLPAADTATYFCGRLDYRVIYAFNLWGPGTLVTISS VL: ELVLTQTPASVSAAVGGTVTINCQASQSIGSGNLAWYQQKPGQPPKLLIYLASTLASGVPPRFKGSGSGTEFTLTISDLECDDAATYYCQYTYYGTTYDNAFGGGTELEIK |
| 2.26 OD450 | mAb of B cell clone 58 (supernatant) (antibody, V domains shown, rabbit; also called B1-#58-1) VH: EQSLEESGGDLVKPGASLTLTCTASAFSFSSSSWICWVRQAPGKGLEWIACIYGGSVGTTYYASWAKGRFTISKPSSTTVTLQMTSLAAADTATYFCATNTDSSRSYYNLWGPGTLVTISS VL: ELVLTQTPSSVEVAVGGAVTIKCQASHIITNYLAWYQQRPGQPPKLLIYDASKLASGVPSRFKGSGSGTEFTLTISDLECADAATYYCQNYLYFSSGDWNVFGGGTEVVVK |
| 2.32 OD450 | mAb of B cell clone 83 (supernatant) (antibody, V domains shown, rabbit; also called B1-#83) VH: EQSLKESGGDLVKPGASLTLTCTASAFSFSSSSWICWVRQAPGKGLEWIACIYGGSVATTYYATWAKGRFTISKPSSTTVTLQMTSLPAADTATYFCATNTDSSRSYYNLWGPGTLVTVSS VL: ELDLTQTPSSVEVAVGGAVTIKCQASHIITNYLAWYQQRPGQPPKLLIYDASKLASGVPSRFKGSGSGTEFTLTISDLECADAATYYCQNYLYFSSGDWNVFGGGTEVVVK |
| 2.09 OD450 | mAb of B cell clone 56 (supernatant) (antibody, V domains shown, rabbit; also called B1-#56) VH: QSLEESGGDLVQPEGSLTLTCTASGFSFSINLYMCWVRQAPGKGLEWIACIYGNNNANTYYTTWAKGRFTISKTSPTTVTLQMTSLTGADTATYFCARDTAAYYAFSLWGPGTLVTISS VL: ELVMTQTPSSSSAAVGGTVTIKCQASQSIGSRFAWYQQKPGQRPKLLIYEASKLPSGVPSRFKGSGSGTEFTLTISDLECADAAIYYCQCTYYESSSGGGFGGGTEVVVK |
| 2.26 OD450 | mAb of B cell clone 41 (supernatant) (antibody, V domains shown, rabbit; also called B1-#41-1) VH: QSVKESGGDLVKPGASLTLTCTASGFSFSSSYWICWVRQAPGKGLEWIACIYAGSSGSTYYASWAKGRFTISKTSSTTVTLQMTSLTAADTATYFCARSTSGSYGAGLGLWGPGTLVTISS VL: ELDMTQTASPVSGAVGGTVTIKCQASQNIYNNIGWYQQKPGQPPNLLIYGPSYLASGVPSRFKGSRSGTEYTLTISDLECADAATYYCQSDDWMSISPDIVFGGGTEVEIK |

biological target: T2, recombinant LILRB1 (human, UniProt Q8NHL6 24-461); test: ELISA, coated recombinant LILRB1, antibody titration;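 note: serially diluted anti-LILRB1 antibodies incubated 60 min at 37 °C on plates coated with 50 ng/well recombinant protein, TMB colorimetric development read as absorbance at 450 nm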
T2 construct: LILRB1-Fc proteins were also made; also called LILRB1 recombinant proteins
T2 sequence (Q8NHL6 24-461 limits assumed): as the sequence (Q8NHL6 24-461 limits assumed) above
Description: ELISA. LILRB1 recombinant proteins (50 ng/well, 100 μL per well) were coated on Corning 96-well ELISA plates at 37° C. for 4 hrs. Plates were blocked for 2 hrs at 37° C. with 5% non-fat milk. After washing with PBST, 100 μL of serial diluted anti-LILRB1 antibodies were added and incubated for 60 min at 37° C. […] Plates were washed again with PBST for another 5 times, then the immunoreactions were developed with TMB substrates (Sigma, Cat #T0440) and stopped by the addition of 2 M H_2SO_4 before the plate was read at 450 nm.

| EC50 | Binder |
| --- | --- |
| 0.0242 µg/mL | B1-#28 (antibody, V domains shown, recombinant rabbit IgG) VH: EQSLEESGGGLVKPGASLTLTCKASGFSFSSDYDMCWVRQAPGKGLEWIGCIVTGFSGRIYYATWARGRFTFSRTSSTTLTLQMTSLTAADTATYFCARDSGNYNWDLWGPGTLVTISS VL: ELDLTQTPTSVSAAVGGTVTIKCQASQSISDYLSWYQQKPGQPPKLLIYRASTLASGVPSRFKGSGSGTEFTLTISDLECADAATYYCQSNYYGSQGCTFGGGTEVEIK |
| 0.0284 µg/mL | B1-#76 (antibody, V domains shown, recombinant rabbit IgG) VH: EQSVEESGGGLVQPEGSLTLTCTASGFSFSGSCDMSWVRQAPGKGLEWIACIVLSNGNTYYAGWAQGRFTISKISSTTVTLEMTSLTAADTATYFCARERYPGAFSSGLDLWGQGTLVTVSS VL: ELDLTQTPSPVSAAVGGTVTINCQASQIVANGRLAWYQQKPGQPPKLLIYATSTLASGVPSRFKGSGSGTQFTLTINGVQCDDAATYYCQGAYSSGDVRTFGGGTEVVVK |
| 0.0285 µg/mL | B1-#160 (antibody, V domains shown, recombinant rabbit IgG) VH: QEQLVESGGGLVQPEGSLTLTCKASGIDFSSGYWICWVRQAPGKGLELIACIFTSSGTTYYASWAKGRFTISKTSSTTVTLQMTSLTAADTATYFCARDIYSYGMDLWGPGTLVTVSS VL: ELDLTQTPASVSAAVGGTVTIKCQASQSISSSYLAWYQQKPGQPPKLLIYSASSTASGVPSRFKGSGSGTQFTLTISDLECADAATYYCQSTYISSSKYGAVFGGGTELEIK |
| 0.0109 µg/mL | B1-#224 (antibody, V domains shown, recombinant rabbit IgG) VH: EQSVEESGGGLVQPEGSLTLTCTASGIDFSSGAWICWVRQAPGKGLELIACIFTTSGFTYYASWAKGRFTISKTSSTTVTLQMTSLTAADTATYFCARDIYSYGMDLWGPGTLVTISS VL: ELVLTQTPSSVSEPVGGTVTIKCQASQSISSSYLAWYQQKPGQPPKFLIYSASTLASGVPSRFKGSGSGTEFTLTISDLECADAATYYCQSTYISSSNYGAAFGGGTEVEIK |
| 0.0154 µg/mL | B1-#79 (antibody, V domains shown, recombinant rabbit IgG) VH: QSLEESGGGLVQPEGSLTLTCTVSGFSFSSSWYMCWVRQAPGKGLEWIACIYTLRSGAAHYANWAKGRFTISKASSTTVTLQMNSLTAADTATYFCARATYAYAGAGDLWGPGTLVTVSS VL: ELVLTQTPSSVSAAVGGTVTINCQASEDIDRYLAWYQQKPGQRPKLLIVDASTLPSGVPSRFKGSGSGTEFTLTISDLECADGATYYCQSYDNSDNNGFGGGTEVVVK |
| 0.0053 µg/mL | B1-#175 (antibody, V domains shown, recombinant rabbit IgG) VH: ESEGGLVKPGGTLTLTCKVSGIDFNSYKYYYMCWVRQAPGKGLEWIGCMSTASRNIYYASWAKGRFTISETSSTSVTLQMTTLTAADTATYFCAKSHGGDGGYGVVLWGPGTLVTISS VL: ELVMTQTPSSVSAAVGDTLTINCQASETISNRLAWYQQKPGQPPKLLIYSASTLESGVPSRFRGSGSGTQFTLTISDLECADAATYYCQSIRSSSGVVHPNTFGGGTEVEIK |
| 0.0093 µg/mL | B1-#15 (antibody, V domains shown, recombinant rabbit IgG) VH: EQSVEESGGDLVKPGASLTLTCTASGFSSSSSAYMCWVRQAPGKGLEWIACIFIGSGSDSYYATWAKGRFTISKTSSTTVTLQMTSLTAADTATYFCARNTYDWNGYIYGPCYFGLWGPGTLVTISS VL: ELDLTQTPSSVEAAVGGTVTIKCQASQSIYNYLAWYQQKPGHSPKLLIYDVSKLASGVSSRFKGSGSGTEFTLTISDLECADAATYYCQSYYGNTVSFTFGGGTEVEIK |
| 0.0171 µg/mL | B1-#58-1 (antibody, V domains shown, recombinant rabbit IgG) VH: EQSLEESGGDLVKPGASLTLTCTASAFSFSSSSWICWVRQAPGKGLEWIACIYGGSVGTTYYASWAKGRFTISKPSSTTVTLQMTSLAAADTATYFCATNTDSSRSYYNLWGPGTLVTISS VL: ELVLTQTPSSVEVAVGGAVTIKCQASHIITNYLAWYQQRPGQPPKLLIYDASKLASGVPSRFKGSGSGTEFTLTISDLECADAATYYCQNYLYFSSGDWNVFGGGTEVVVK |
| 0.0155 µg/mL | B1-#83 (antibody, V domains shown, recombinant rabbit IgG) VH: EQSLKESGGDLVKPGASLTLTCTASAFSFSSSSWICWVRQAPGKGLEWIACIYGGSVATTYYATWAKGRFTISKPSSTTVTLQMTSLPAADTATYFCATNTDSSRSYYNLWGPGTLVTVSS VL: ELDLTQTPSSVEVAVGGAVTIKCQASHIITNYLAWYQQRPGQPPKLLIYDASKLASGVPSRFKGSGSGTEFTLTISDLECADAATYYCQNYLYFSSGDWNVFGGGTEVVVK |
| 0.181 µg/mL | B1-#38 (antibody, V domains shown, recombinant rabbit IgG) VH: EQSVEESEGGLVQPEGSLTLTCTASGFSFSNDYWICWVRQAPGKGLEWIGCGHIGSFRTTYYASWAKGRFSISKTSSTTVTLQMTSLTGADTATYFCARSPYDDGYGGFTFNLWGPGTLVTISS VL: ELDMTQTPSSVEAAVGGTVTVKCQVSQSIGNAIAWYQQKPGQPPKLLIYKASTLASGVPSRFKGSGSGTEFTLTISDLECADAATYYCQNYYYSNTNSFGGGTEVVVK |
| 0.0438 µg/mL | B1-#56 (antibody, V domains shown, recombinant rabbit IgG) VH: QSLEESGGDLVQPEGSLTLTCTASGFSFSINLYMCWVRQAPGKGLEWIACIYGNNNANTYYTTWAKGRFTISKTSPTTVTLQMTSLTGADTATYFCARDTAAYYAFSLWGPGTLVTISS VL: ELVMTQTPSSSSAAVGGTVTIKCQASQSIGSRFAWYQQKPGQRPKLLIYEASKLPSGVPSRFKGSGSGTEFTLTISDLECADAAIYYCQCTYYESSSGGGFGGGTEVVVK |
| 0.0106 µg/mL | B1-#220 (antibody, V domains shown, recombinant rabbit IgG) VH: QSVEESGGGLVQPEGSLTLTCTASGFSFSGIVYMCWVRQAPGKGLEWIACAFVGSGGSTYYATWATGRFTISKTSSTTVTLQMTSLTAADTATYFCAKSYNYNGLGLWGPGTLVTVSS VL: ELDMTQTPASVSAAVGGTVTIKCQASQSITNALAWYQQKPGQPPKLLIYRASTLASGVSSRFKGSGSGTEFTLTISDLECADAATYYCQCSYYGSTYFGSPFGGGTEVEIK |
| 0.0594 µg/mL | B1-#202-2 (antibody, V domains shown, recombinant rabbit IgG) VH: SQSLEESGGGLVKPGASLTLTCKGSGFSFNGDYYMCWVRQTPGKGLEWIGCIYAAGDDTYYATWAKGRFTISKTSSTTVTLQMTSLTAADTATYFCARDQADSYAFGLWGPGTLVTISS VL: ELVLTQTASPVSGAVGGTVTIKCQASQNIYSNLAWYQQKPGQPPKLLIYSASKLASGVPSRFKGSGSGTEYTLTISGVQCEDAATYYCQSYYYTASADTTFGGGTEVEIK |
